Data published in US20230374071A1, “COMPOSITIONS FOR INDUCING URINARY VOIDING AND DEFECATION” (Dignify Therapeutics, LLC, priority 2020, published 2023).
Starred links: 1 amine or outer side, 2 acyl side, 3 side chain; linkers in the order of their positions; H or OH if unused. Non-standard residues stand in square brackets, D forms with d. No end group written: not given here. gc = gamma constrained Gly-(R-gamma-lactam)-Leu moiety, (S)-2-((R)-3-amino)-2-oxopyrrolidin-1-yl)-4-methylpentanoyl, between Val and the C-terminal residue, CC(C)C[C@@H](C(=O)[*:2])N1CC[C@@H](N[*:1])C1=O; Nle = CCCC[C@H](N)C(=O)O; βAla = NCCC(=O)O

T1: human neurokinin 2 receptor (human, UniProt P21452 1-398)
T1 sequence (looked up): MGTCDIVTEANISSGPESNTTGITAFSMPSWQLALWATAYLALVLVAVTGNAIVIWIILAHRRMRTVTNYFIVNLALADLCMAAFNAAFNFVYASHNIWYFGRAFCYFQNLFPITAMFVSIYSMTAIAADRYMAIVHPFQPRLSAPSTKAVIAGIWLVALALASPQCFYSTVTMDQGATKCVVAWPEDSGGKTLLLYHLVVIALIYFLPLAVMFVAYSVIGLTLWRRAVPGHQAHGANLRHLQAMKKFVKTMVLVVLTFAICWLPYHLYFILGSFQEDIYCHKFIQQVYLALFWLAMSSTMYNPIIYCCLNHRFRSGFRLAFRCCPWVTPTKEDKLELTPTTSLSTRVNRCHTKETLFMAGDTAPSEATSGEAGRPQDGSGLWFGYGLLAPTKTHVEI


Tests used:
Test in all cases: cell-based or functional assay
[1] = target: T2, human neurokinin 1 receptor (human, UniProt P25103 1-407)
[2] = target: T1, human neurokinin 2 receptor
[3] = target: T2, human neurokinin 1 receptor; remark: listed apart in the source
[4] = target: T1, human neurokinin 2 receptor; remark: listed apart in the source

T2 sequence (P25103 whole entry): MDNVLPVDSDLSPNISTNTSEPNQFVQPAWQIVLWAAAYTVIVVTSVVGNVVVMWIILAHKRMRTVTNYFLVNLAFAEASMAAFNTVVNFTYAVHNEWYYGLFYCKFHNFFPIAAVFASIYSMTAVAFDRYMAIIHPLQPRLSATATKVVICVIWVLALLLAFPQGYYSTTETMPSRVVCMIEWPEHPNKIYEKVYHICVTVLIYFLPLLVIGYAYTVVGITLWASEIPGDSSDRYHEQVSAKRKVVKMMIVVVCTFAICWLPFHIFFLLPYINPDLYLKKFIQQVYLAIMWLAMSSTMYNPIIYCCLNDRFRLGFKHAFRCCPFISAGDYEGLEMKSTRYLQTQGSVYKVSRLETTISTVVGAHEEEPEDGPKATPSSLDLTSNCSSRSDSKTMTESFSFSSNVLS

Row | maximal calcium response [1] | maximal calcium response [2] | hNK1R pEC50 (intracellular calcium mobilization, FLIPR, CHO cells) [3] | NK2R/NK1R selectivity ratio [4] | hNK2R pEC50 (intracellular calcium mobilization, FLIPR, CHO cells) [4] | Binder
1 | ≥ 73 % maximal response compared to Substance P | ≥ 85 % maximal response compared to Neurokinin A | 5.79 | 206 fold | 8.11 | KDSFV[gc][Nle]-NH2 (N-terminus assumed; SMILES CCCC[C@H](NC(=O)[C@H](CC(C)C)N1CC[C@@H](NC(=O)[C@@H](NC(=O)[C@H](Cc2ccccc2)NC(=O)[C@H](CO)NC(=O)[C@H](CC(=O)O)NC(=O)[C@@H](N)CCCCN)C(C)C)C1=O)C(N)=O) [Compound G (Lys-Asp-Ser-Phe-Val-gc-Nle-NH2)]
2 | ≥ 85 % maximal response compared to Substance P | ≥ 85 % maximal response compared to Neurokinin A | 7.76 | 90 fold | 9.71 | DRFV[gc]M-NH2 (N-terminus assumed; SMILES CSCC[C@H](NC(=O)[C@H](CC(C)C)N1CC[C@@H](NC(=O)[C@@H](NC(=O)[C@H](Cc2ccccc2)NC(=O)[C@H](CCCNC(=N)N)NC(=O)[C@@H](N)CC(=O)O)C(C)C)C1=O)C(N)=O) [Compound E (Asp-Arg-Phe-Val-gc-Met-NH2)]
3 | ≥ 85 % maximal response compared to Substance P | ≥ 85 % maximal response compared to Neurokinin A | 6.63 | 93 fold | 8.6 | DRFV[gc][Nle]-NH2 (N-terminus assumed; SMILES CCCC[C@H](NC(=O)[C@H](CC(C)C)N1CC[C@@H](NC(=O)[C@@H](NC(=O)[C@H](Cc2ccccc2)NC(=O)[C@H](CCCNC(=N)N)NC(=O)[C@@H](N)CC(=O)O)C(C)C)C1=O)C(N)=O) [Compound F (Asp-Arg-Phe-Val-gc-Nle-NH2)]
4 | ≥ 85 % maximal response compared to Substance P | ≥ 85 % maximal response compared to Neurokinin A | 6.52 | 23 fold | 7.88 | KDSFV[βAla]L[Nle]-NH2 (N-terminus assumed; SMILES CCCC[C@H](NC(=O)[C@H](CC(C)C)NC(=O)CCNC(=O)[C@@H](NC(=O)[C@H](Cc1ccccc1)NC(=O)[C@H](CO)NC(=O)[C@H](CC(=O)O)NC(=O)[C@@H](N)CCCCN)C(C)C)C(N)=O) [Compound J (Lys-Asp-Ser-Phe-Val-(β-Ala)-Leu-Nle-NH2)]
